According to PMC8810938 (Clinical & Translational Immunology, 2022):

What was measured:
[1] = molecular target: T1, CXCR3A‐transfected CHO cells (human CXCR3A) (Homo sapiens, UniProt P49682); conditions: CXCR3‐transfected CHO cells; n = 4; cited from earlier work
T1 sequence (P49682 1-368): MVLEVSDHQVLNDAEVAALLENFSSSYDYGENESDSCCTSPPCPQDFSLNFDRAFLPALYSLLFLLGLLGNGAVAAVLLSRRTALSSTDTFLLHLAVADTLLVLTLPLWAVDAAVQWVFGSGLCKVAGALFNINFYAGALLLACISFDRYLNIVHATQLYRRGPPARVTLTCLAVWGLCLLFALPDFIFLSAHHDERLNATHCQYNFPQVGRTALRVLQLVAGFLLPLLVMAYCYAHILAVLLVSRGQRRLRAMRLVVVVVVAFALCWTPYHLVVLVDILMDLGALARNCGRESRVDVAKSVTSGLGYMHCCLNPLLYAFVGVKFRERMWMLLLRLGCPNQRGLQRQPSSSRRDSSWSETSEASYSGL

[2] = system: TGF‐β1‐stimulated human fibroblasts; assay: Induction assay: fibrotic marker mRNA; format: cell-based; conditions: primary human fibroblasts, TGF‐β1 5 ng mL^−1, 48 h, only at the highest test concentration 100 nM; qPCR; n = 4

Substance: CXCL9(1–103): authentic full‐length human CXCL9 chemokine of 103 amino acids (Peprotech)
- calcium response [1]: 598.1 ± 22.9 nM
- collagen III mRNA expression [2]: significant reduction
